Data as given in patent JP2022109630A (dated 2022).

Key:
Assay in all cases: ELISA, immobilised recombinant L7/L12 (10 ng/mL), antibody 10 ug/mL
[1] = biological target: T1, 黄色ブドウ球菌(SA)のリボソームタンパク質L7/L12 (黄色ブドウ球菌 (Staphylococcus aureus))
T1 construct: also called Staphylococcus aureus ribosomal protein L7/L12; SA L7/L12

[2] = biological target: T2, 緑膿菌(PA)のリボソームタンパク質L7/L12 (緑膿菌 (Pseudomonas aeruginosa))
T2 construct: also called Pseudomonas aeruginosa ribosomal protein L7/L12; PA L7/L12

[3] = biological target: T3, クレブシエラ・ニューモニエ(KP)のリボソームタンパク質L7/L12 (クレブシエラ・ニューモニエ (Klebsiella pneumoniae))
T3 construct: also called 肺炎桿菌; Klebsiella pneumoniae ribosomal protein L7/L12

[4] = biological target: T4, モラキセラ菌(MC)のリボソームタンパク質L7/L12 (モラキセラ菌 (Moraxella catarrhalis))
T4 construct: also called Moraxella catarrhalis ribosomal protein L7/L12; MC L7/L12

[5] = biological target: T5, 溶連菌(SPY)のリボソームタンパク質L7/L12 (溶連菌 (Streptococcus pyogenes))
T5 construct: also called Streptococcus pyogenes ribosomal protein L7/L12; SPY L7/L12

[6] = biological target: T6, 髄膜炎菌(NM)のリボソームタンパク質L7/L12 (髄膜炎菌 (Neisseria meningitidis))
T6 construct: also called Neisseria meningitidis ribosomal protein L7/L12; NM L7/L12

[7] = biological target: T7, 淋菌(NG)のリボソームタンパク質L7/L12 (淋菌 (Neisseria gonorrhoeae))
T7 construct: also called Neisseria gonorrhoeae ribosomal protein L7/L12; NG L7/L12

[8] = biological target: T8, クラミジア・トラコマチス(CT)のリボソームタンパク質L7/L12 (クラミジア・トラコマチス (Chlamydia trachomatis))
T8 construct: also called Chlamydia trachomatis ribosomal protein L7/L12; CT L7/L12

[9] = biological target: T9, サルモネラ菌(SE)のリボソームタンパク質L7/L12 (サルモネラ菌 (Salmonella enteritidis))
T9 construct: also called Salmonella enteritidis ribosomal protein L7/L12; SE L7/L12

[10] = biological target: T10, リステリア・モノサイトゲネス(LM)のリボソームタンパク質L7/L12 (リステリア・モノサイトゲネス (Listeria monocytogenes))
T10 construct: also called Listeria monocytogenes ribosomal protein L7/L12; LM L7/L12

[11] = biological target: T11, カンピロバクター・ジェジュニ(CJ)のリボソームタンパク質L7/L12 (カンピロバクター・ジェジュニ (Campylobacter jejuni))
T11 construct: also called Campylobacter jejuni ribosomal protein L7/L12; CJ L7/L12

[12] = biological target: T12, 肺炎球菌(SP)のリボソームタンパク質L7/L12 (肺炎球菌 (Streptococcus pneumoniae))
T12 construct: also called Streptococcus pneumoniae ribosomal protein L7/L12; SP L7/L12

[13] = biological target: T13, インフルエンザ菌(HI)のリボソームタンパク質L7/L12 (インフルエンザ菌 (Haemophilus influenzae))
T13 construct: also called Haemophilus influenzae ribosomal protein L7/L12; HI L7/L12

[14] = biological target: T14, 肺炎マイコプラズマ(MP)のリボソームタンパク質L7/L12 (肺炎マイコプラズマ (Mycoplasma pneumoniae))
T14 construct: also called Mycoplasma pneumoniae ribosomal protein L7/L12; MP L7/L12

[15] = biological target: T15, 百日咳菌(BP)のリボソームタンパク質L7/L12 (百日咳菌 (Bordetella pertussis))
T15 construct: also called Bordetella pertussis ribosomal protein L7/L12; BP L7/L12

[16] = biological target: T16, 肺炎クラミジア(CP)のリボソームタンパク質L7/L12 (肺炎クラミジア (Chlamydia pneumoniae))
T16 construct: also called Chlamydia pneumoniae ribosomal protein L7/L12; CP L7/L12

Measured: absorbance at 450 nm

B1: 汎用性抗体C(CP141A190.1) (antibody, V domains shown)
VH: QVQLQQPGAELVKPGASVKLSCKTSGYNFTSNWIHWVKQRPGQGLEWIGEINPSNGRANYNEKFKNKATLTVDKSSSTAFMHLSSLTSEDSAVYFCSRGDFDEGFTYWGQGTLVTVSA
VL: QIVLTQSPAIMSASLGERVTMTCTASSNVNSDYLHWYQQKPGSSPRLWIYTTSNLASGVPTRFSGNGSGTSYSLTISSMEAEDAATYYCHQYHRSPRTFGGGTKLEIK
notes: also called CP141A190.1; general-purpose antibody C
≥ 0.3 absorbance (450 nm): all assays above

B2: 汎用性抗体A(PA51B2) (antibody, V domains shown)
VH: QVQLQQPGSVLVRPGASVKLSCKPSGYTFTGSWMHWTKQRPGQGLEWIGEIHPYSGNTNYNEKFRVKATLTVDTSSSTTYVDLSSLTSDDSAVYYCASGDFDAGFTYWGQGTLVTVSA
VL: DIVLTQSPASLAVSLGRRATISCKASQSVDYDGDSYMNWYQQKPGQPPKLLIYVASNLESGIPARFSGSGSGTDFTLNIHPVEEEDAATYYCQQTNEDPFTFGAGTKLELK
notes: also called PA51B2; general-purpose antibody A
≥ 0.3 absorbance (450 nm): all assays above
